Laboratory results reported in US20140242093A1, “METHODS AND COMPOSITIONS FOR MODULATING THE INNATE IMMUNE RESPONSE AND/OR MYOGENESIS IN A MAMMALIAN SUBJECT” (FRED HUTCHINSON CANCER RESEARCH CENTER, priority 2011, published 2014).

Tested on: control human primary myoblasts
Assay: Expression microarray of primary myoblasts transduced with lentivirus carrying DUX4-fl, DUX4-s or GFP
Description: Primary human myoblasts were collected and cultured as previously described (Snider et al., 2010). Primary myoblasts were maintained at or below 70% confluency for proliferation. For differentiation, cells were allowed to reach 95-100% confluency in growth medium. Once confluency was reached, the cells were changed to differentiation medium (F10 media supplemented with 1% horse serum, 10 μg/mL insulin, and 10 μg/mL transferrin, penicillin/streptomycin) and maintained for 4 days. Human RD cells were grown in DMEM in 10% bovine calf serum (Hyclone) and penicillin/streptomycin. The primary myoblasts were transduced with lentivirus carrying DUX-fl, DUX4- or GFP (MOI=15).
Expression microarrays were performed on the transduced cells at 24 hours after transduction as follows. […] Samples were analyzed by Illumina Human Whole Genome microarrays. Probe intensities were corrected, normalized, and summarized by the Lumi package of Bioconductor (Du et al., 2008). Differentially expressed genes were identified by the LIMMA package of Bioconductor (Wettenhall and Smyth, 2004). Gene set enrichment analysis (GSEA) was performed using the Bioconductor GOstats package (Falcon and Gentleman, 2007).

B1: DUX4-s: short splice form of DUX4 (SEQ ID NO:112), keeps the double-homeobox domains, lacks the C-terminal activation domain (protein, listed as Homo sapiens)
chain: MALPTPSDSTLPAEARGRGRRRRLVWTPSQSEALRACFERNPYPGIATRERLAQAIGIPEPRVQIWFQNERSRQLRQHRRESRPWPGRRGPPEGRRKRTAVTGSQTALLLRAFEKDRFPGIAAREELARETGLPESRIQIWFQNRRARHPGQGGRAPAQV
PNMA6B expression fc (Refseq XM_001721351.1): −0.2189 | LOC100133984 expression fc (Refseq XM_001723079.1): −0.03265 | LOC649330 expression fc (Refseq XM_001723218.1): −0.2697 | LOC100128202 expression fc (Refseq XM_001723719.1): −0.1157 | LOC100130311 expression fc (Refseq XM_001724111.1): 0.1436 | LOC100131539 expression fc (Refseq XM_001724873.1): 0.06524 | LOC100134006 expression fc (Refseq XM_001725030.1): −0.02089 | LOC730167 expression fc (Refseq XM_001726158.1): 1.257 | LOC100129681 expression fc (Refseq XM_001726834.1, cultured human skeletal muscle): 0.5189 | LOC651709 expression fc (Refseq XM_001732813.1): 0.09445 | LOC727828 expression fc (Refseq XR_015137.1): −0.00556 | LOC728060 fc (Refseq XR_015272.2): 0.2553 | LOC732393 expression fc (Refseq XR_015873.1): 0.03683 | MGC40489 expression fc (Refseq XR_016048.1): −0.4604 | LOC643263 expression fc (Refseq XR_016355.1): −0.133 | LOC441081 expression fc (Refseq XR_017029.1): 0.06023 | LOC647366 expression fc (Refseq XR_018122.1): −0.003339 | LOC440041 expression fc (Refseq XR_018122.2): 0.021 | LOC647827 expression fc (Refseq XR_018213.1): −0.05208 | LOC399988 expression fc (Refseq XR_018287.2): −0.4131 | LOC650215 fc (Refseq XR_018889.1): 0.6386 | fc of RBMS2P (expression array) (Refseq XR_019556.2): 1.313 | LOC642148 expression fc (Refseq XR_019607.1): 0.1352 | LOC650236 expression fc (Refseq XR_036872.1): −0.05945 | LOC100134322 expression fc (Refseq XR_037416.1): 0.1962 | LOC730974 expression fc (Refseq XR_037751.1): 0.02384 | LOC643445 expression fc (Refseq XR_038080.1): 0.07882 | LOC729516 expression fc (Refseq XR_038445.1): −0.00369 | LOC340970 expression fc (Refseq XR_038494.1): 0.03296 | LOC645381 expression fc (Refseq XR_038557.1): −0.1266 | LOC728429 expression fc (Refseq XR_038921.1): −0.02834 | LOC645638 fc (Refseq XR_040455.1): −0.07113 | LOC400464 expression fc (Refseq XR_041115.1): −0.07853 | TRIM53 expression fc (Refseq XR_041244.1): 0.07913 | LOC729009 expression fc (Refseq XR_042330.1, cultured human skeletal muscle): 0.6634 | ABCC3 expression fc (cultured human skeletal muscle): 0.1349 | ADM expression fc (cultured human skeletal muscle): 0.6367 | AGTRAP expression fc (cultured human skeletal muscle): 0.6152 | AHNAK expression fc (cultured human skeletal muscle): 0.163 | ANGPTL2 expression fc (cultured human skeletal muscle): −0.7837 | ANKFY1 expression fc (cultured human skeletal muscle): 0.09409 | APOL3 expression fc (cultured human skeletal muscle): 0.9777 | ARHGEF19 expression fc (cultured human skeletal muscle): 0.1103 | ARID3A expression fc (cultured human skeletal muscle): 0.2867 | ASNS expression fc (cultured human skeletal muscle): 0.7133 | ATF5 expression fc (cultured human skeletal muscle): 0.5025 | ATL3 expression fc (cultured human skeletal muscle): 1.352 | BHLHB2 expression fc (cultured human skeletal muscle): 0.6222 | BTG2 expression fc (cultured human skeletal muscle): −0.1242 | BTN3A2 expression fc (cultured human skeletal muscle): 0.3356 | BTN3A3 expression fc (cultured human skeletal muscle): 0.4019 | C1RL expression fc (cultured human skeletal muscle): −0.1589 | C4orf18 expression fc (cultured human skeletal muscle): −0.5109 | C8orf13 expression fc (cultured human skeletal muscle): 0.4235 | C14orf4 expression fc (cultured human skeletal muscle): 0.05349 | C18orf56 expression fc (cultured human skeletal muscle): 0.2126 | CA9 expression fc (cultured human skeletal muscle): 0.5237 | CABC1 expression fc (cultured human skeletal muscle): −0.1757 | CABYR expression fc (cultured human skeletal muscle): −0.04313 | CCDC8 expression fc (cultured human skeletal muscle): −0.09225 | CEBPD expression fc (cultured human skeletal muscle): 0.1596 | CLDN15 expression fc (cultured human skeletal muscle): −0.3718 | CNTNAP1 expression fc (cultured human skeletal muscle): 0.1486 | COL8A1 expression fc (cultured human skeletal muscle): 0.469 | CRISPLD2 expression fc (cultured human skeletal muscle): −0.45 | CSF3 expression fc (cultured human skeletal muscle): 0.8126 | CYGB expression fc (cultured human skeletal muscle): 0.157 | CYP26B1 expression fc (cultured human skeletal muscle): 0.4149 | CYP27A1 expression fc (cultured human skeletal muscle): −0.0598 | DAB2 expression fc (cultured human skeletal muscle): 0.1092 | DCN expression fc (cultured human skeletal muscle): 0.2641 | DDB2 expression fc (cultured human skeletal muscle): 0.1073 | DDIT4 expression fc (cultured human skeletal muscle): 0.346 | DDX60L expression fc (cultured human skeletal muscle): 0.6578 | DKFZp451A211 expression fc (cultured human skeletal muscle): 0.3087 | DNAJB2 expression fc (cultured human skeletal muscle): −0.01635 | DUSP10 expression fc (cultured human skeletal muscle): −0.3659 | ERAP2 expression fc (cultured human skeletal muscle): 0.7658 | ESPNL expression fc (cultured human skeletal muscle): −0.2957 | FADS1 expression fc (cultured human skeletal muscle): 0.4186 | FAM110B expression fc (cultured human skeletal muscle): −0.7651 | FAM175A expression fc (cultured human skeletal muscle): 0.2667 | FHL2 expression fc (cultured human skeletal muscle): −0.08794 | FILIP1L expression fc (cultured human skeletal muscle): 0.06528 | FKBP5 expression fc (cultured human skeletal muscle): −0.1027 | FOXQ1 expression fc (cultured human skeletal muscle): 0.6403 | FPR1 expression fc (cultured human skeletal muscle): 0.9327 | FST expression fc (cultured human skeletal muscle): 0.9107 | FUCA1 expression fc (cultured human skeletal muscle): 0.2909 | GALK1 expression fc (cultured human skeletal muscle): −0.5288 | GALNTL2 expression fc (cultured human skeletal muscle): 0.9881 | GAS1 expression fc (cultured human skeletal muscle): 0.007049 | GBP4 expression fc (cultured human skeletal muscle): 2.337 | GFPT2 expression fc (cultured human skeletal muscle): 0.04945 | GPX8 expression fc (cultured human skeletal muscle): −0.3321 | GRINA expression fc (cultured human skeletal muscle): 0.4683 | GSDMD expression fc (cultured human skeletal muscle): 0.5738 | HAS2 expression fc (cultured human skeletal muscle): 0.691 | HCG4 expression fc (cultured human skeletal muscle): 0.6838 | HES4 expression fc (cultured human skeletal muscle): 1.068 | HLA-C expression fc (cultured human skeletal muscle): 0.6015 | HLA-H expression fc (cultured human skeletal muscle): 0.327 | HOXC6 expression fc (cultured human skeletal muscle): −0.1927 | ID3 expression fc (cultured human skeletal muscle): −0.07117 | IDH3B expression fc (cultured human skeletal muscle): 0.07117 | IFIT5 expression fc (cultured human skeletal muscle): −0.2831 | IFITM2 expression fc (cultured human skeletal muscle): 0.006726 | IGFBP5 expression fc (cultured human skeletal muscle): 0.178 | IHPK3 expression fc (cultured human skeletal muscle): −0.09089 | IL32 expression fc (cultured human skeletal muscle): 0.06112 | IMPA2 expression fc (cultured human skeletal muscle): −0.3411 | IRAK2 expression fc (cultured human skeletal muscle): 0.5116 | IRAK3 expression fc (cultured human skeletal muscle): 1.053 | ISCU expression fc (cultured human skeletal muscle): 0.03975 | ITPRIP expression fc (cultured human skeletal muscle): 0.5516 | KIAA1618 expression fc (cultured human skeletal muscle): −0.2961 | KLF6 expression fc (cultured human skeletal muscle): 0.6419 | KRT17 expression fc (cultured human skeletal muscle): 0.4585 | LAP3 expression fc (cultured human skeletal muscle): 1.402 | LIMA1 expression fc (cultured human skeletal muscle): 0.2565 | LOC387763 expression fc (cultured human skeletal muscle): 0.2048 | LOC389386 expression fc (cultured human skeletal muscle): 1.37 | LOC392437 expression fc (cultured human skeletal muscle): 0.113 | LOC653879 expression fc (cultured human skeletal muscle): 0.3261 | LOC728431 expression fc (cultured human skeletal muscle): 0.4549 | MAMDC2 expression fc (cultured human skeletal muscle): −0.02851 | MAOA expression fc (cultured human skeletal muscle): −0.3759 | MCEE expression fc (cultured human skeletal muscle): −0.341 | MGC16121 expression fc (cultured human skeletal muscle): 0.01304 | MIOS expression fc (cultured human skeletal muscle): 0.1238 | MLPH expression fc (cultured human skeletal muscle): 0.4233 | MMP3 expression fc (cultured human skeletal muscle): 0.2839 | MOCOS expression fc (cultured human skeletal muscle): 0.4177 | MOV10 expression fc (cultured human skeletal muscle): 0.6869 | MSC expression fc (cultured human skeletal muscle): 0.2529 | MSI2 expression fc (cultured human skeletal muscle): 1.327 | MT1A expression fc (cultured human skeletal muscle): −0.1212 | MT2A expression fc (cultured human skeletal muscle): 0.08469 | MUC1 expression fc (cultured human skeletal muscle): 0.3508
